{"source": "patent US20180147232", "biological_target": "Flag-TSC2 (UniProt P49815)", "sequence (P49815 whole entry)": "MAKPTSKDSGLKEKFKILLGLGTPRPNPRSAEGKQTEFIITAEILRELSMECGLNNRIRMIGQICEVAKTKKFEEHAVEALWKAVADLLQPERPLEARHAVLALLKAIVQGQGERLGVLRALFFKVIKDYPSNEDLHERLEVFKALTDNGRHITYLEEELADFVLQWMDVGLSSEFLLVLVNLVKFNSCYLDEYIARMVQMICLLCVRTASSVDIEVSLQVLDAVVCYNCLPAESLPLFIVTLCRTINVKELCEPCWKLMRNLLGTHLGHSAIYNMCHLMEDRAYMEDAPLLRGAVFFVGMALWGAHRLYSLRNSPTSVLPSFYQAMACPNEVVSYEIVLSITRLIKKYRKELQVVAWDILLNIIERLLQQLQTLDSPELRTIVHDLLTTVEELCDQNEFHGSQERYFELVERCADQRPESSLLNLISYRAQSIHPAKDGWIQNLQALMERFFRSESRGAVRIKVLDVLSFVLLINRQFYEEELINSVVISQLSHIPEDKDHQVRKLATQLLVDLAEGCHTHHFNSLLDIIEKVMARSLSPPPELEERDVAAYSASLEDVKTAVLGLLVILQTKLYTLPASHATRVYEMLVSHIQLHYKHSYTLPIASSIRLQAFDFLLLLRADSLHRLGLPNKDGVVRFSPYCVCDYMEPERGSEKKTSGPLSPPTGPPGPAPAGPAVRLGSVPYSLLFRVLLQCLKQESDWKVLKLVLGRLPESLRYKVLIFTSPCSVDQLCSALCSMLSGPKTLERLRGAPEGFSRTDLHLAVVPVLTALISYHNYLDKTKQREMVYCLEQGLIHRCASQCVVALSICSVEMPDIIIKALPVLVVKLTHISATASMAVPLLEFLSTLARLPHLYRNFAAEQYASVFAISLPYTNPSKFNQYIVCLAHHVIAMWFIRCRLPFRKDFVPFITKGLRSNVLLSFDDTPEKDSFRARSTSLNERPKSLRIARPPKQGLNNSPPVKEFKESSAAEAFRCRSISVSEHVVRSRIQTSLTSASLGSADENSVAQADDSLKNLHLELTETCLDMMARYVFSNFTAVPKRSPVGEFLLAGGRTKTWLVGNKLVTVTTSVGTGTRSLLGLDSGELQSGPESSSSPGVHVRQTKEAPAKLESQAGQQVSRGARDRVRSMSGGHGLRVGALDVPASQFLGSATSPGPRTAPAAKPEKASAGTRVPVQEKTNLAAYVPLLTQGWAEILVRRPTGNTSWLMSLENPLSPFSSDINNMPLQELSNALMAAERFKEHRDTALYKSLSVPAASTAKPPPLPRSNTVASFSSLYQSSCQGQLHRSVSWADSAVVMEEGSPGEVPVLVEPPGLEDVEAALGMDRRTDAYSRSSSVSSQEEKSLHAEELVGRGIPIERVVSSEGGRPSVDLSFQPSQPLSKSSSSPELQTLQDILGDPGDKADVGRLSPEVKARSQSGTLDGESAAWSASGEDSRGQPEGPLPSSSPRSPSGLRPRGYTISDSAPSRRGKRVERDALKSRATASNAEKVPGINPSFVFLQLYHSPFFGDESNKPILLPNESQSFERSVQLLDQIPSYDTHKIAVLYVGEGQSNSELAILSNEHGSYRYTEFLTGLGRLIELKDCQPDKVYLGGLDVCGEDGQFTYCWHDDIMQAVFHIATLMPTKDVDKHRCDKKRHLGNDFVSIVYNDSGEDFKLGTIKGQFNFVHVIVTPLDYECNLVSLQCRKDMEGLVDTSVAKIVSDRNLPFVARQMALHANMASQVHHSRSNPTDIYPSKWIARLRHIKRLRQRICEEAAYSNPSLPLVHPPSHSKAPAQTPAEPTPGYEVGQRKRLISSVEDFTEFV"}
{"substance": "HA-SGK1", "values": [{"measurement": "phosphorylation of RXRXX(S/T) motifs on co-expression", "result": "co-expression of SGK1 with TSC2 increased the phosphorylation of RXRXX(S/T) (SEQ ID NO: 1) motifs"}]}
